Measured values from the supplement of paper PMC11780869.

Test system: Bacillus subtilis
Assay: cleaved RNA product abundance (RNA/gDNA barcode ratio) relative to median wild-type variant (ratio to wild type); higher = more accumulation of the downstream cleavage product
Settings: experiment (reporter, strain, medium): exp 8a: truncated aprE reporter, strain BJT201 with 2% xylose (RNase J1 expressed); cleavage site: glnRA (positions -5 to +31 mutated)
Method in brief: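 Reporter mRNAs based on truncated aprE or tetM carried barcoded, mutagenized RNase Y cleavage-site windows built from oligos with a 9% error rate and were integrated into the B. subtilis chromosome. Cultures grew in LB at 37°C from OD600 0.0003 to 0.3. Cleaved RNA was gel-selected, reverse transcribed and barcode-sequenced together with genomic DNA barcodes, and UMIs were collapsed. Cleaved product abundance is the per-construct ratio of RNA to gDNA barcodes, scaled to the median of constructs carrying the unmutated site.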

Sequence | cleaved RNA product abundance
CGACATGTCCCGCTTCTTTCATTAATCCGTTAGCAACTGTTTTGCTATATACAGTTACGTTTTAAGAGGAGGAAT | 0.192
CGACATGTCCCGCTTCTTTCATTAATCCGTTAGCAACTGTTTTGCTATATACATATAACTTTTAAGAGGAGGAAT | 1.73
CGACATGTCCCGCTTCTTTCATTAATCCGTTAGCAACTGTTTTGCTATATACATATACATTTTAAGAGGAGGAAT | 0.68
CGACATGTCCCGCTTCTTTCATTAATCCGTTAGCAACTGTTTTGCTATATACATATACCATTTAAGAGGAGGAAT | 0.971
CGACATGTCCCGCTTCTTTCATTAATCCGTTAGCAACTGTTTTGCTATATACATATACCTTTTAAGAGGAGGAAT | 1.04
CGACATGTCCCGCTTCTTTCATTAATCCGTTAGCAACTGTTTTGCTATATACATATACGTTTTAAGAGGAGGAAT | 1.29
CGACATGTCCCGCTTCTTTCATTAATCCGTTAGCAACTGTTTTGCTATATACATATACTTTTTAAGAGGAGGAAT | 0.975
CGACATGTCCCGCTTCTTTCATTAATCCGTTAGCAACTGTTTTGCTATATACATATATCTTTTAAGAGGAGGAAT | 1.06
CGACATGTCCCGCTTCTTTCATTAATCCGTTAGCAACTGTTTTGCTATATACATATTCCTTTTAAGAGGAGGAAT | 0.511
CGACATGTCCCGCTTCTTTCATTAATCCGTTAGCAACTGTTTTGCTATATACATCTACATTTTAAGAGGAGGAAT | 1.27
CGACATGTCCCGCTTCTTTCATTAATCCGTTAGCAACTGTTTTGCTATATACATCTACCTTTTAAGAGGAGGAAT | 0.867
CGACATGTCCCGCTTCTTTCATTAATCCGTTAGCAACTGTTTTGCTATATACATGTACCTTTTAAGAGGAGGAAT | 0.738
CGACATGTCCCGCTTCTTTCATTAATCCGTTAGCAACTGTTTTGCTATATACATTAACCGTTTAAGAGGAGGAAT | 0.934
CGACATGTCCCGCTTCTTTCATTAATCCGTTAGCAACTGTTTTGCTATATACATTAACCTTTTAAGAGGAGGAAT | 1.37
CGACATGTCCCGCTTCTTTCATTAATCCGTTAGCAACTGTTTTGCTATATACATTAACTTTTTAAGAGGAGGAAT | 1.71
CGACATGTCCCGCTTCTTTCATTAATCCGTTAGCAACTGTTTTGCTATATACATTAATCTTTTAAGAGGAGGAAT | 1.54
CGACATGTCCCGCTTCTTTCATTAATCCGTTAGCAACTGTTTTGCTATATACATTACCCTTTTAAGAGGAGGAAT | 0.597
CGACATGTCCCGCTTCTTTCATTAATCCGTTAGCAACTGTTTTGCTATATACATTAGCCTTTTAAGAGGAGGAAT | 0.519
CGACATGTCCCGCTTCTTTCATTAATCCGTTAGCAACTGTTTTGCTATATACATTCACCTTTTAAGAGGAGGAAT | 0.581
CGACATGTCCCGCTTCTTTCATTAATCCGTTAGCAACTGTTTTGCTATATACATTGACCATTTAAGAGGAGGAAT | 0.525
CGACATGTCCCGCTTCTTTCATTAATCCGTTAGCAACTGTTTTGCTATATACATTGACCTTTTAAGAGGAGGAAT | 0.989
CGACATGTCCCGCTTCTTTCATTAATCCGTTAGCAACTGTTTTGCTATATACATTTAACATTTAAGAGGAGGAAT | 0.609
CGACATGTCCCGCTTCTTTCATTAATCCGTTAGCAACTGTTTTGCTATATACATTTAACGTTTAAGAGGAGGAAT | 1.13
CGACATGTCCCGCTTCTTTCATTAATCCGTTAGCAACTGTTTTGCTATATACATTTAACTTTTAAGAGGAGGAAT | 1.24
CGACATGTCCCGCTTCTTTCATTAATCCGTTAGCAACTGTTTTGCTATATACATTTACAATTTAAGAGGAGGAAT | 1.08

Sequence | cleaved RNA product abundance
CGACATGTCCCGCTTCTTTCATTAATCCGTTAGCAACTGTTTTGCTATATACATTTACATTTTAAGAGGAGGAAT | 1.39
CGACATGTCCCGCTTCTTTCATTAATCCGTTAGCAACTGTTTTGCTATATACATTTACCATTTAAGAGGAGGAAT | 1.03
CGACATGTCCCGCTTCTTTCATTAATCCGTTAGCAACTGTTTTGCTATATACATTTACCCTTTAAGAGGAGGAAT | 0.763
CGACATGTCCCGCTTCTTTCATTAATCCGTTAGCAACTGTTTTGCTATATACATTTACCCTTTTAAGAGGAGGAA | 0.756
CGACATGTCCCGCTTCTTTCATTAATCCGTTAGCAACTGTTTTGCTATATACATTTACCGTTTAAGAGGAGGAAT | 0.948
CGACATGTCCCGCTTCTTTCATTAATCCGTTAGCAACTGTTTTGCTATATACATTTACGTTTTAAGAGGAGGAAT | 1.12
CGACATGTCCCGCTTCTTTCATTAATCCGTTAGCAACTGTTTTGCTATATACATTTACTTTTTAAGAGGAGGAAT | 1.23
CGACATGTCCCGCTTCTTTCATTAATCCGTTAGCAACTGTTTTGCTATATACATTTAGCATTTAAGAGGAGGAAT | 0.755
CGACATGTCCCGCTTCTTTCATTAATCCGTTAGCAACTGTTTTGCTATATACATTTAGCTTTTAAGAGGAGGAAT | 1.07
CGACATGTCCCGCTTCTTTCATTAATCCGTTAGCAACTGTTTTGCTATATACATTTAGGTTTTAAGAGGAGGAAT | 0.86
CGACATGTCCCGCTTCTTTCATTAATCCGTTAGCAACTGTTTTGCTATATACATTTATCGTTTAAGAGGAGGAAT | 0.92
CGACATGTCCCGCTTCTTTCATTAATCCGTTAGCAACTGTTTTGCTATATACATTTATCTTTTAAGAGGAGGAAT | 1.27
CGACATGTCCCGCTTCTTTCATTAATCCGTTAGCAACTGTTTTGCTATATACATTTATGTTTTAAGAGGAGGAAT | 0.888
CGACATGTCCCGCTTCTTTCATTAATCCGTTAGCAACTGTTTTGCTATATACATTTATTTTTTAAGAGGAGGAAT | 2.39
CGACATGTCCCGCTTCTTTCATTAATCCGTTAGCAACTGTTTTGCTATATACATTTCCCATTTAAGAGGAGGAAT | 1.11
CGACATGTCCCGCTTCTTTCATTAATCCGTTAGCAACTGTTTTGCTATATACATTTCCCTTTTAAGAGGAGGAAT | 0.531
CGACATGTCCCGCTTCTTTCATTAATCCGTTAGCAACTGTTTTGCTATATACATTTCCTTTTTAAGAGGAGGAAT | 0.345
CGACATGTCCCGCTTCTTTCATTAATCCGTTAGCAACTGTTTTGCTATATACATTTGCCTTTTAAGAGGAGGAAT | 0.413
CGACATGTCCCGCTTCTTTCATTAATCCGTTAGCAACTGTTTTGCTATATACATTTTCCTTTTAAGAGGAGGAAT | 0.416
CGACATGTCCCGCTTCTTTCATTAATCCGTTAGCAACTGTTTTGCTATATACATTTTCTTTTTAAGAGGAGGAAT | 0.842
CGACATGTCCCGCTTCTTTCATTAATCCGTTAGCAACTGTTTTGCTATATACATTTTTCTTTTAAGAGGAGGAAT | 0.479
CGACATGTCCCGCTTCTTTCATTAATCCGTTAGCAACTGTTTTGCTATATACCTTAACCTTTTAAGAGGAGGAAT | 0.281
CGACATGTCCCGCTTCTTTCATTAATCCGTTAGCAACTGTTTTGCTATATACCTTCACCTTTTAAGAGGAGGAAT | 0.276
CGACATGTCCCGCTTCTTTCATTAATCCGTTAGCAACTGTTTTGCTATATACCTTTACCTTTTAAGAGGAGGAAT | 0.283
CGACATGTCCCGCTTCTTTCATTAATCCGTTAGCAACTGTTTTGCTATATACGTTTACCTTTTAAGAGGAGGAAT | 0.361
